{"source": "patent US12383572B2", "about": "“Administration of an anti-activin-a compound to a subject” (AMGEN INC., priority 2013, dated 2025)", "molecules": {"B1": {"name": "sActRIIB: extracellular domain of human activin type-2B receptor fused to IgG2 Fc; full length SEQ ID NO: 21 (Table 9) (protein, listed as Homo sapiens)", "chain": "ETRWCIYYNANWELERTNQSGLERCEGEQDKRLHCYASWRNSSGTIELVKKGCWLDDFNCYDRQECVATEENPQVYFCCCEGNFCNERFTHLPEAGGPEVTYEPPPTAPTGGGGSVECPPCPAPPVAGPSVFLFPPKPKDTLMISRTPEVTCVVVDVSHEDPEVQFNWYVDGVEVHNAKTKPREEQFNSTFRVVSVLTVVHQDWLNGKEYKCKVSNKGLPAPIEKTISKTKGQPREPQVYTLPPSREEMTKNQVSLTCLVKGFYPSDIAVEWESNGQPENNYKTTPPMLDSDGSFFLYSKLTVDKSRWQQGNVFSCSVMHEALHNHYTQKSLSLSPGK"}}, "key": {"activin-A (βA) mRNA": {"system": "activin-A (βA) mRNA", "assay": "Northern blot of activin-A (βA) mRNA in inh-KO tumors", "format": "in vivo, mouse", "conditions": "inh-KO mice, increase vs WT controls", "experimental": "Total RNA was isolated from individual tissue samples after homogenization in Trizol (Invitrogen). A pool of 10 μg RNA for each group containing equal amounts of total RNA isolated from individual animals was subjected to Northern blot analysis. The northern probes used for βA and Ang-2 were generated by using RT-PCR (Phusion, Biolabs). βA primer set: 5′-CCCTTGCTTTGGCTGAGAGGA-3′ (SEQ ID NO: 294) and 5′-TC ACA GGT CGT CGT AGG TCG-3′ (SEQ ID NO: 295); Ang-2 primer set: 5′-TGT GCC GGG GAG AAG AG (SEQ ID NO: 296) and 5′-TACAGTAGTGGGTTGAGGTTC-3′ (SEQ ID NO: 297). To normalize the expression, northern blot membranes were re-probed with β-actin."}, "[1]": {"system": "ovarian and testicular tumors", "assay": "Light microscopy (H & E) of inh-KO ovaries and testes", "format": "in vivo, mouse", "from_the_text": "Testes and ovaries from inh-KO mice were fixed with Zinc-formalin. Tissue sections were subjected to H & E staining and then examined with a Nikon Eclipse 90i microscope."}, "TOV-21G xenografts": {"system": "TOV-21G xenografts", "assay": "TOV-21G xenograft, sActRIIB and 5-FU chemotherapy combination", "format": "in vivo, human", "conditions": "nude mice; sActRIIB 10 mg/kg SC 1x/week, 5-FU 50 mg/kg IP 3 cycles, alone or together", "experimental": "TOV-21G xenograft. 5×10^6 TOV-21G ovarian cancer cells were implanted subcutaneously into individual female athymic nu/nu mice (Harlan). Treatment was initiated at day 12 after tumor implantation, when the average tumor volume reached approximately 150 mm^3. The mice received PBS, sActRIIB (30 mg/kg, SC, 1×/week) or activin-A antibody (30 mg/kg, SC, 2×/week). In a separate chemotherapy combination experiment, the mice were treated with PBS, sActRIIB (10 mg/kg, SC, 1×/week), 5-FU (50 mg/kg, IP, 3 cycles, 4 daily injections per cycle) or sActRIIB and 5-FU combination at the same doses above. For all xenograft experiments, the tumor sizes were measured longitudinally by using an electronic caliper. Immediately prior to the 1st dose, the tumor-bearing mice were randomized to ensure even distribution in tumor sizes across different groups. Tumor volumes (mm^3) were calculated as tumor length (mm)×tumor width (mm)×tumor height (mm). Tumor weights were determined by necropsy."}, "VEGF and Ang-1": {"system": "VEGF and Ang-1", "assay": "VEGF and Ang-1 immunostaining of inh-KO ovarian and testicular tumor sections", "format": "in vivo, mouse", "conditions": "ovarian and testicular tumors, inh-KO mice", "experimental": "Zinc-formalin fixed paraffin tumor tissue sections of 4 μm in thickness were prepared. The sections were subjected to antigen retrieval by microwave 3 min in Unmask solution (Vector H-3300) followed by incubation in 10 μg/ml Proteinase-K for 20 min and in 1% H2O2 in dH2O for 10 min at room temperature. The sections were further incubated in 0.1% Tween-20 in PBS for 3 min to permeabilize the cell membrane and in goat serum for 30 min to block non-specific binding. The sections were then incubated at room temperature with specific primary antibody for 3 hours followed by incubation in biotinylated or fluorescently labeled secondary antibody. Substrate developed in Vector SG kit (SK-4700) or DAB and nuclear-counterstained in Vector Fast Red (H-3403) or in hematoxylin. The immunostained tissue sections were analyzed and photographed using a Nikon Eclipse 90i microscope equipped with DS-Ril camera. The primary antibodies used and their dilutions are as follows: VEGF (BD Pharmingen 550549) 1:20 or VEGF (Abcam ab46154) 1:100, active caspase-3 (Abcam ab32042) 1:50, Ang-1 (Abcam ab8451) 1:500, osteopontin (Abcam ab8448) 1:200, CD-31 (Abcam ab56299) 1:100, E-cadherin (Abcam ab76319) 1:80. For immunofluorescence staining, FITC-conjugated secondary antibody (Invitrogen) was added at 1:50 dilution in PBS and incubated for 30 min. Cell nuclei were counterstained with Vectashield PE (Vector)."}}}
{"molecule": "B1", "values": [{"measurement": "levels of βA transcripts in the tumors", "setting": "activin-A (βA) mRNA", "result": "completely blocked"}, {"measurement": "ovarian morphology by light microscopy", "setting": "[1]; female inh-KO mice", "result": "the ovaries were normal in size and contained many recognizable follicles, minimal tumor cell invasion and few hemorrhagic lesions"}, {"measurement": "testicular morphology by light microscopy", "setting": "[1]; male inh-KO mice", "result": "the testes were normal in size and filled with seminiferous tubules, although the number of spermatogonia was less than normal and a few small areas still contained tumor cells"}, {"measurement": "rate of tumor growth", "setting": "TOV-21G xenografts", "result": "decreased the rate of tumor growth significantly"}, {"measurement": "VEGF and Ang-1 immunoreactivities in tumor sections", "setting": "VEGF and Ang-1", "result": "completely abolished the VEGF and Ang-1 inductions in the tumors"}]}
